In PMC10629583 (2023):
Where no end group is shown, it is not given here. [ ]: non-standard residue; d: D form. The star is where a group is joined. FITC = O=C1OC2(c3ccc(O)cc3Oc3cc(O)ccc32)c2ccc(NC(=S)*)cc21; pT = C[C@@H](OP(=O)(O)O)[C@H](N)C(=O)O; Ahx = NCCCCCC(=O)O

How the values were obtained:
Assay in all cases: FP
[1] = biological target: PBD1 (residues 345–603) F559K (human, UniProt P53350 345-603, F559K)
[2] = biological target: PBD1 (residues 345–603) F559R (human, UniProt P53350 345-603, F559R)
[3] = biological target: PBD1 (residues 345–603) F559E (human, UniProt P53350 345-603, F559E)
[4] = biological target: PBD1 (residues 345–603) F559D (human, UniProt P53350 345-603, F559D)
[5] = biological target: Plk1 polo-box domain, PBD1 (residues 345–603) WT (human, UniProt P53350 345-603)
FITC-GPLATSpTPKNG = biological target: T1, FITC-GPLATSpTPKNG (synthetic construct)
T1 chain: {FITC}-GPLATS[pT]PKNG

FITC-GPMQTSpTPKNG = biological target: T2, FITC-GPMQTSpTPKNG (synthetic construct)
T2 chain: {FITC}-GPMQTS[pT]PKNG

Plk1 polo-box domain, PBD1 (residues 345–603) WT, sequence (P53350 345-603): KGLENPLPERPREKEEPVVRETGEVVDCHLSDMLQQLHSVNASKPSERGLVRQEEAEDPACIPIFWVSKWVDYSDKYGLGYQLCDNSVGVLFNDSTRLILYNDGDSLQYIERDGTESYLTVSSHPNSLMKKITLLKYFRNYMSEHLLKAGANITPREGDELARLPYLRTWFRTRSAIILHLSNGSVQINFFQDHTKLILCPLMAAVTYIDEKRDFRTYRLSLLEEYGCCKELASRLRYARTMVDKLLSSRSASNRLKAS
PBD1 (residues 345–603) F559D, sequence (P53350 345-603 F559D): as the sequence (P53350 345-603) above, with F215D counted along it
PBD1 (residues 345–603) F559R, sequence (P53350 345-603 F559R): as the sequence (P53350 345-603) above, with F215R counted along it
PBD1 (residues 345–603) F559K, sequence (P53350 345-603 F559K): as the sequence (P53350 345-603) above, with F215K counted along it
PBD1 (residues 345–603) F559E, sequence (P53350 345-603 F559E): as the sequence (P53350 345-603) above, with F215E counted along it

B1: FITC-Ahx-DPPLHSpTAI-NH2 (peptide)
peptide: {FITC-Ahx}-DPPLHS[pT]AI-NH2
SMILES: CC[C@H](C)[C@H](NC(=O)[C@H](C)NC(=O)[C@@H](NC(=O)[C@H](CO)NC(=O)[C@H](Cc1c[nH]cn1)NC(=O)[C@H](CC(C)C)NC(=O)[C@@H]1CCCN1C(=O)[C@@H]1CCCN1C(=O)[C@H](CC(=O)O)NC(=O)CCCCCNC(=S)Nc1ccc2c(c1)C(=O)OC21c2ccc(O)cc2Oc2cc(O)ccc21)[C@@H](C)OP(=O)(O)O)C(N)=O
For B1, the Kd [1] was 704 nM, the Kd [2] was 460 nM and the Kd [3] was 124 nM. It also gave a Kd [4] of 28.1 nM and a Kd [5] of 16.8 nM.

B2: MBP-PBD3 A612F (protein)
chain: TPPNPARSLFAKVTKSLFGRKKKSKNHAQERDEVSGLVSGLMRTSVGHQDARPEAPAASGPAPVSLVETAPEDSSPRGTLASSGDGFEEGLTVATVVESALCALRNCIAFMPPAEQNPAPLAQPEPLVWVSKWVDYSNKFGFGYQLSSRRVAVLFNDGTHMALSANRKTVHYNPTSTKHFSFSVGAVPRALQPQLGILRYFASYMEQHLMKGGDLPSVEEVEVPAPPLLLQWVKTDQALLMLFSDGTVQVNFYGDHTKLILSGWEPLLVTFVARNRSFCTYLASHLRQLGCSPDLRQRLRYALRLLRDRSPA
With B2 the Kd (FITC-GPLATSpTPKNG) was 85.4 nM.

B3: MBP-PBD3 (protein)
chain: TPPNPARSLFAKVTKSLFGRKKKSKNHAQERDEVSGLVSGLMRTSVGHQDARPEAPAASGPAPVSLVETAPEDSSPRGTLASSGDGFEEGLTVATVVESALCALRNCIAFMPPAEQNPAPLAQPEPLVWVSKWVDYSNKFGFGYQLSSRRVAVLFNDGTHMALSANRKTVHYNPTSTKHFSFSVGAVPRALQPQLGILRYFASYMEQHLMKGGDLPSVEEVEVPAPPLLLQWVKTDQALLMLFSDGTVQVNFYGDHTKLILSGWEPLLVTFVARNRSACTYLASHLRQLGCSPDLRQRLRYALRLLRDRSPA
B3 was tested, and the Kd (FITC-GPLATSpTPKNG) was 62.4 nM.

B4: PBD2 S652F (protein)
chain: HLSSPAKNFFKKAAAALFGGKKDKARYIDTHNRVSKEDEDIYKLRHDLKKTSITQQPSKHRTDEELQPPTTTVARSGTPAVENKQQIGDAIRMIVRGTLGSCSSSSECLEDSTMGSVADTVARVLRGCLENMPEADCIPKEQLSTSFQWVTKWVDYSNKYGFGYQLSDHTVGVLFNNGAHMSLLPDKKTVHYYAELGQCSVFPATDAPEQFISQVTVLKYFSHYMEENLMDGGDLPSVTDIRRPRLYLLQWLKSDKALMMLFNDGTFQVNFYHDHTKIIICSQNEEYLLTYINEDRIFTTFRLTTLLMSGCSSELKNRMEYALNMLLQRCN
With B4 the Kd (FITC-GPMQTSpTPKNG) was 62.7 nM.

B5: PBD2 (protein)
chain: HLSSPAKNFFKKAAAALFGGKKDKARYIDTHNRVSKEDEDIYKLRHDLKKTSITQQPSKHRTDEELQPPTTTVARSGTPAVENKQQIGDAIRMIVRGTLGSCSSSSECLEDSTMGSVADTVARVLRGCLENMPEADCIPKEQLSTSFQWVTKWVDYSNKYGFGYQLSDHTVGVLFNNGAHMSLLPDKKTVHYYAELGQCSVFPATDAPEQFISQVTVLKYFSHYMEENLMDGGDLPSVTDIRRPRLYLLQWLKSDKALMMLFNDGTFQVNFYHDHTKIIICSQNEEYLLTYINEDRISTTFRLTTLLMSGCSSELKNRMEYALNMLLQRCN
Binder B5 has a Kd (FITC-GPMQTSpTPKNG) of 80.2 nM.
